Experimental data reported in patent US20110104667.

Molecular target: infectious prion protein PrPCWD (CWD prion, elk strain E2) (Cervus canadensis (elk)?) (UniProt P67986)
Assay: EMSA
Design: unit not given here

infectious prion protein PrPCWD (CWD prion, elk strain E2) (Cervus canadensis (elk)?), sequence (P67986 25-233): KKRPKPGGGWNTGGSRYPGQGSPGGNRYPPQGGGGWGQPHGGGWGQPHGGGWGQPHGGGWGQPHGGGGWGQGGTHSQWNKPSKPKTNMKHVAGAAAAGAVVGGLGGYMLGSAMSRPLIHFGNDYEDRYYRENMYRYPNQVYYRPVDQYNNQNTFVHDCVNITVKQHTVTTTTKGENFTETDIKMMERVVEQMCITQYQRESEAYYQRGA

For “TACGACTCACTATAGGGATCCNNNNNNNNNNNNNNNNNNNNNNNNNNNNGAATTCCCTTTAGTGAGGGTT [70-mer DNA randomer library, PrPCWD-retained fraction]”, the Kd was 6e-05.
